Experimental data taken from article PMC4917396.
Where “and” joins values, the source holds several entries; their conditions need not be identical. Equal entries are not always repeated.

Tests used:
[1] = molecular target: recombinant full-length murine amelogenin with an uncleavable N-terminal histidine tag (rp(H)M180) (mouse); experiment: in situ AFM with volume analysis of adsorbates
[2] = molecular target: recombinant full-length murine amelogenin with an uncleavable N-terminal histidine tag (rp(H)M180) (mouse); experiment: in situ AFM coverage with Hill fit
[3] = molecular target: recombinant full-length murine amelogenin without tag (rpM179) (mouse); experiment: in situ AFM with volume analysis of adsorbates
[4] = molecular target: recombinant full-length murine amelogenin without tag (rpM179) (mouse); experiment: in situ AFM coverage with Hill fit
[5] = molecular target: recombinant full-length murine amelogenin without tag (rpM179) (mouse); experiment: in situ AFM with volume analysis of adsorbates; remark: listed apart in the source
[6] = molecular target: recombinant full-length murine amelogenin without tag (rpM179) (mouse); experiment: in situ AFM with volume analysis of adsorbates; remark: listed apart in the source
[7] = molecular target: recombinant full-length murine amelogenin without tag (rpM179) (mouse); experiment: DLS

| Substance | stoichiometry N [1] | ln Ka [2] | stoichiometry N [3] | ln Ka [4] | stoichiometry N [5] | stoichiometry N [6] | stoichiometry N [7] |
| --- | --- | --- | --- | --- | --- | --- | --- |
| recombinant full-length murine amelogenin with an uncleavable N-terminal histidine tag (rp(H)M180) (natural protein) | 25 monomers | 76.2 Ka in M^-n |  |  |  |  |  |
| recombinant full-length murine amelogenin without tag (rpM179) (natural protein) |  |  | 25 monomers | 3.35 Ka in M^-n | 100 monomers and 200 monomers | 150 monomers | 200 monomers |
